Experimental data reported in patent US9382311.

Target: JR-CSF gp120 N276A (HIV-1) (UniProt P20871)
Experiment: cell-based or functional assay

Question: VRC01 (antibody) was tested. Which increase in neutralization potency did it give?
Answer: 4 fold
